Here are results for 1 substance from article PMC6459899, “Pleiotropic Clostridioides difficile Cyclophilin PpiB Controls Cysteine-Tolerance, Toxin Production, the Central Metabolism and Multiple Stress Responses” (Frontiers in Pharmacology, 2019).

The target in this assay is CdPpiB wild type fused to the T25 subunit of adenylate cyclase (pKNTB) (C. difficile str. 630Δerm) (UniProt Q18D70). The assay can be described thus: two-hybrid; BACTH in E. coli BTH101; β-galactosidase assay (ONPG, 12 min, 30°C) in Miller Units, cultures grown o/n at 30°C with 0.5 mM IPTG.

Substance “Lrp P87A fused to the T18 subunit of adenylate cyclase (natural protein)” displayed a β-galactosidase activity of 869 MU.
